Data published in US20150299686A1.

Columns and labels:
[1] = target: FrsA (Fermentation Respiration Switch) protein from Vibrio vulnificus, wild type, recombinant (Vibrio vulnificus) (UniProt Q7MN61); assay: cell-based or functional assay
[2] = target: phosphorylated recombinant IIA^Glc protein (crr gene product) from Vibrio vulnificus
[3] = target: non-phosphorylated recombinant IIA^Glc protein (crr gene product) from Vibrio vulnificus

Molecule: non-phosphorylated recombinant IIA^Glc protein (crr gene product) from Vibrio vulnificus
- catalytic activity of FrsA as fold over PDC [1]: 17 times

B1: FrsA (Fermentation Respiration Switch) protein from Vibrio vulnificus, wild type, recombinant (protein)
chain: MSEEVSKNLSETLFVKHKQAIETSALTQYMPTSQSLLDEIKEKNGFSWYRNLRRLQWVWQGVDPIEQEQVLARIASSKHSRTDEQWLDTVMGYHSGNWAYEWTRLGMEHQKRAGEMTNEAASEALFSASLCYSIAGYPHLKSDNLAIQAQVLANSAYLEAAKKSKYIIKQLEIPFEKGKITAHLHLTNTDKPHPVVIVSAGLDSLQTDMWRLFRDHLAKHDIAMLTVDMPSVGYSSKYPLTEDYSRLHQAVLNELFSIPYVDHHRVGLIGFRFGGNAMVRLSFLEQERIKACVILGAPIHDIFASPQKLQQMPKMYLDVLASRLGKSVVDIYSLSGQMAAWSLKVQGFLSSRKTKVPILAMSLEGDPVSPYSDNQMVAFFSTYGKAKKISSKTITQGYEQSLDLAIKWLEDELLR
- Km (pyruvate decarboxylation by FrsA with phospho-IIA^Glc added) [2]: 390 µM
- kcat (pyruvate decarboxylation by FrsA with phospho-IIA^Glc added) [2]: 1310 ± 48 s⁻¹
- kcat/Km (pyruvate decarboxylation by FrsA with phospho-IIA^Glc added) [2]: 3.36e+06 ± 150000 M⁻¹ s⁻¹
- Km (pyruvate decarboxylation by FrsA with dephospho-IIA^Glc added) [3]: 390 µM
- kcat (pyruvate decarboxylation by FrsA with dephospho-IIA^Glc added) [3]: 2980 ± 158 s⁻¹
- kcat/Km (pyruvate decarboxylation by FrsA with dephospho-IIA^Glc added) [3]: 7.64e+06 ± 713000 M⁻¹ s⁻¹
